Tested on: Escherichia coli TOP10
Test: shrunken log2 fold change of peptide-encoding DNA abundance (4.5 h post-induction vs induction); higher = less antimicrobial activity (less host growth inhibition)
Settings: time post-induction: 4.5 h; library: site-saturation at positions 5, 18, 19, 20
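Further: peptides expressed intracellularly from a pBAD plasmid library in pooled LB shake-flask culture, induced with 0.3% L-arabinose, DNA abundance read by NGS, three biological replicates, DESeq2 with apeglm shrinkage.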

Row | Sequence | shrunken log2 fold change
1 | RRIRERPPRLPRPRPRPWEDPRP | -0.0727
2 | RRIRERPPRLPRPRPRPWEPPRP | 0.073
3 | RRIRERPPRLPRPRPRPWGFPRP | 0.0221
4 | RRIRERPPRLPRPRPRPWGIPRP | -0.234
5 | RRIRERPPRLPRPRPRPWGKPRP | -0.042
6 | RRIRERPPRLPRPRPRPWISPRP | 0.0119
7 | RRIRERPPRLPRPRPRPWITPRP | -0.00674
8 | RRIRERPPRLPRPRPRPWLGPRP | -0.247
9 | RRIRERPPRLPRPRPRPWLSPRP | 0.0694
10 | RRIRERPPRLPRPRPRPWRIPRP | -0.0301
11 | RRIRERPPRLPRPRPRPWRLPRP | -0.00145
12 | RRIRERPPRLPRPRPRPWRNPRP | 0.0891
13 | RRIRERPPRLPRPRPRPWTAPRP | -0.478
14 | RRIRERPPRLPRPRPRPWTTPRP | -0.0139
15 | RRIRERPPRLPRPRPRPWVHPRP | -0.0432
16 | RRIRERPPRLPRPRPRPWWGPRP | -0.081
17 | RRIRERPPRLPRPRPRPWWQPRP | -0.0206
18 | RRIRERPPRLPRPRPRPYANPRP | 0.0234
19 | RRIRERPPRLPRPRPRPYCSPRP | -0.57
20 | RRIRERPPRLPRPRPRPYEYPRP | -0.387
21 | RRIRERPPRLPRPRPRPYGNPRP | -0.0871
22 | RRIRERPPRLPRPRPRPYGRPRP | -0.264
23 | RRIRERPPRLPRPRPRPYHLPRP | -0.0102
24 | RRIRERPPRLPRPRPRPYHNPRP | -1.33
25 | RRIRERPPRLPRPRPRPYKRPRP | -0.905

Row | Sequence | shrunken log2 fold change
26 | RRIRERPPRLPRPRPRPYKTPRP | -0.00814
27 | RRIRERPPRLPRPRPRPYLPPRP | -0.392
28 | RRIRERPPRLPRPRPRPYLTPRP | -0.424
29 | RRIRERPPRLPRPRPRPYNKPRP | -1.11
30 | RRIRERPPRLPRPRPRPYPLPRP | -0.192
31 | RRIRERPPRLPRPRPRPYQNPRP | -0.0789
32 | RRIRERPPRLPRPRPRPYRKPRP | -0.264
33 | RRIRERPPRLPRPRPRPYRQPRP | -0.264
34 | RRIRERPPRLPRPRPRPYRRPRP | -0.0227
35 | RRIRERPPRLPRPRPRPYSMPRP | -1.48
36 | RRIRERPPRLPRPRPRPYTDPRP | -0.956
37 | RRIRERPPRLPRPRPRPYTNPRP | -0.172
38 | RRIRERPPRLPRPRPRPYWDPRP | -0.111
39 | RRIRERPPRLPRPRPRPYYIPRP | -0.262
40 | RRIRFRPPRLPRPRPRPAACPRP | 0.0906
41 | RRIRFRPPRLPRPRPRPAAVPRP | 0.169
42 | RRIRFRPPRLPRPRPRPACWPRP | 0.471
43 | RRIRFRPPRLPRPRPRPADHPRP | 0.00851
44 | RRIRFRPPRLPRPRPRPADRPRP | -0.0752
45 | RRIRFRPPRLPRPRPRPAEVPRP | -0.127
46 | RRIRFRPPRLPRPRPRPAFLPRP | -0.17
47 | RRIRFRPPRLPRPRPRPAFMPRP | -0.164
48 | RRIRFRPPRLPRPRPRPAFNPRP | -0.367
49 | RRIRFRPPRLPRPRPRPAGKPRP | 0.279
50 | RRIRFRPPRLPRPRPRPAHMPRP | 0.129

Row | Sequence | shrunken log2 fold change
51 | RRIRFRPPRLPRPRPRPAITPRP | -0.136
52 | RRIRFRPPRLPRPRPRPALKPRP | -0.0754
53 | RRIRFRPPRLPRPRPRPALWPRP | 0.625
54 | RRIRFRPPRLPRPRPRPAMHPRP | 0.234
55 | RRIRFRPPRLPRPRPRPAMPPRP | 0.0356
56 | RRIRFRPPRLPRPRPRPANDPRP | 0.0325
57 | RRIRFRPPRLPRPRPRPANEPRP | 0.0451
58 | RRIRFRPPRLPRPRPRPAQCPRP | 0.0148
59 | RRIRFRPPRLPRPRPRPAQYPRP | -0.574
60 | RRIRFRPPRLPRPRPRPARSPRP | 0.336
61 | RRIRFRPPRLPRPRPRPASFPRP | 0.279
62 | RRIRFRPPRLPRPRPRPASIPRP | -0.231
63 | RRIRFRPPRLPRPRPRPATDPRP | -0.0766
64 | RRIRFRPPRLPRPRPRPATHPRP | 0.167
65 | RRIRFRPPRLPRPRPRPATMPRP | -0.0804
66 | RRIRFRPPRLPRPRPRPAVDPRP | 0.43
67 | RRIRFRPPRLPRPRPRPAVLPRP | 0.107
68 | RRIRFRPPRLPRPRPRPAWQPRP | 2.26
69 | RRIRFRPPRLPRPRPRPAWWPRP | 0.273
70 | RRIRFRPPRLPRPRPRPAYYPRP | -0.227
71 | RRIRFRPPRLPRPRPRPCAVPRP | -0.46
72 | RRIRFRPPRLPRPRPRPCCLPRP | -0.725
73 | RRIRFRPPRLPRPRPRPCCNPRP | -0.0548
74 | RRIRFRPPRLPRPRPRPCDWPRP | -0.0151
75 | RRIRFRPPRLPRPRPRPCFTPRP | -0.237

Row | Sequence | shrunken log2 fold change
76 | RRIRFRPPRLPRPRPRPCIWPRP | 0.25
77 | RRIRFRPPRLPRPRPRPCKCPRP | -0.317
78 | RRIRFRPPRLPRPRPRPCKIPRP | -0.0538
79 | RRIRFRPPRLPRPRPRPCKSPRP | -0.0582
80 | RRIRFRPPRLPRPRPRPCLQPRP | 0.0975
81 | RRIRFRPPRLPRPRPRPCMEPRP | -0.105
82 | RRIRFRPPRLPRPRPRPCMKPRP | 0.068
83 | RRIRFRPPRLPRPRPRPCPNPRP | 0.044
84 | RRIRFRPPRLPRPRPRPCPWPRP | -0.0658
85 | RRIRFRPPRLPRPRPRPCQNPRP | 0.0482
86 | RRIRFRPPRLPRPRPRPCQVPRP | 0.084
87 | RRIRFRPPRLPRPRPRPCRSPRP | 0.974
88 | RRIRFRPPRLPRPRPRPCRTPRP | 0.048
89 | RRIRFRPPRLPRPRPRPCSEPRP | 0.0135
90 | RRIRFRPPRLPRPRPRPCVAPRP | -0.201
91 | RRIRFRPPRLPRPRPRPCVPPRP | -0.835
92 | RRIRFRPPRLPRPRPRPCWQPRP | 3.76
93 | RRIRFRPPRLPRPRPRPCYDPRP | -0.0301
94 | RRIRFRPPRLPRPRPRPDASPRP | 0.146
95 | RRIRFRPPRLPRPRPRPDCAPRP | 0.0274
96 | RRIRFRPPRLPRPRPRPDCYPRP | -0.329
97 | RRIRFRPPRLPRPRPRPDDCPRP | 0.014
98 | RRIRFRPPRLPRPRPRPDDIPRP | -0.0253
99 | RRIRFRPPRLPRPRPRPDEDPRP | 0.181
100 | RRIRFRPPRLPRPRPRPDEFPRP | -0.267

Row | Sequence | shrunken log2 fold change
101 | RRIRFRPPRLPRPRPRPDFDPRP | -0.15
102 | RRIRFRPPRLPRPRPRPDHDPRP | -0.217
103 | RRIRFRPPRLPRPRPRPDIEPRP | 0.0974
104 | RRIRFRPPRLPRPRPRPDIHPRP | -0.268
105 | RRIRFRPPRLPRPRPRPDILPRP | -0.119
106 | RRIRFRPPRLPRPRPRPDKEPRP | -0.0026
107 | RRIRFRPPRLPRPRPRPDLGPRP | 0.106
108 | RRIRFRPPRLPRPRPRPDMGPRP | -0.176
109 | RRIRFRPPRLPRPRPRPDMHPRP | 0.191
110 | RRIRFRPPRLPRPRPRPDMPPRP | -0.016
111 | RRIRFRPPRLPRPRPRPDRSPRP | 0.0602
112 | RRIRFRPPRLPRPRPRPDSHPRP | -0.495
113 | RRIRFRPPRLPRPRPRPDSLPRP | -0.204
114 | RRIRFRPPRLPRPRPRPDTQPRP | 0.0363
115 | RRIRFRPPRLPRPRPRPDVPPRP | -0.356
116 | RRIRFRPPRLPRPRPRPDWAPRP | 0.0526
117 | RRIRFRPPRLPRPRPRPDWQPRP | 0.0911
118 | RRIRFRPPRLPRPRPRPEACPRP | -0.0833
119 | RRIRFRPPRLPRPRPRPEAVPRP | 0.323
120 | RRIRFRPPRLPRPRPRPECTPRP | 0.0551
121 | RRIRFRPPRLPRPRPRPEFAPRP | -0.175
122 | RRIRFRPPRLPRPRPRPEFIPRP | -0.523
123 | RRIRFRPPRLPRPRPRPEFWPRP | 0.264
124 | RRIRFRPPRLPRPRPRPEFYPRP | 0.0551
125 | RRIRFRPPRLPRPRPRPEGKPRP | 0.143

Row | Sequence | shrunken log2 fold change
126 | RRIRFRPPRLPRPRPRPEGLPRP | -0.0574
127 | RRIRFRPPRLPRPRPRPEHHPRP | -0.306
128 | RRIRFRPPRLPRPRPRPEHKPRP | -0.0193
129 | RRIRFRPPRLPRPRPRPEHRPRP | 0.105
130 | RRIRFRPPRLPRPRPRPEIFPRP | -0.139
131 | RRIRFRPPRLPRPRPRPEILPRP | -0.0488
132 | RRIRFRPPRLPRPRPRPEKRPRP | -0.0774
133 | RRIRFRPPRLPRPRPRPEMCPRP | -0.0817
134 | RRIRFRPPRLPRPRPRPEMKPRP | 0.0843
135 | RRIRFRPPRLPRPRPRPEMMPRP | 0.00382
136 | RRIRFRPPRLPRPRPRPENNPRP | -0.285
137 | RRIRFRPPRLPRPRPRPEPIPRP | 0.291
138 | RRIRFRPPRLPRPRPRPEQPPRP | 0.0505
139 | RRIRFRPPRLPRPRPRPERYPRP | 0.0915
140 | RRIRFRPPRLPRPRPRPETTPRP | 0.533
141 | RRIRFRPPRLPRPRPRPEWEPRP | 0.00489
142 | RRIRFRPPRLPRPRPRPEWIPRP | -0.0219
143 | RRIRFRPPRLPRPRPRPEWPPRP | 0.459
144 | RRIRFRPPRLPRPRPRPEYLPRP | -0.203
145 | RRIRFRPPRLPRPRPRPFDAPRP | -0.0477
146 | RRIRFRPPRLPRPRPRPFDDPRP | -0.488
147 | RRIRFRPPRLPRPRPRPFEIPRP | -0.0265
148 | RRIRFRPPRLPRPRPRPFGIPRP | -0.197
149 | RRIRFRPPRLPRPRPRPFGLPRP | -0.635
150 | RRIRFRPPRLPRPRPRPFHFPRP | -0.532

Source: the supplement of paper PMC9112550, “Optimization of the antimicrobial peptide Bac7 by deep mutational scanning” (BMC Biology, 2022)
